Assay results as given in publication PMC6486591.

Assays:
[1] = target: YenA2 (Yersinia entomophaga) (UniProt B6A878); experiment: cryo-EM structure; YenTcA pore form inserted into POPC liposomes (1:2 w/w, 3-5 freeze/thaw cycles), single-particle cryo-EM, 11 Å resolution
[2] = target: YenA2 (Yersinia entomophaga) (UniProt B6A878); experiment: cryo-EM structure; YenTcA soluble pre-pore form, single-particle cryo-EM, 4.4 Å average resolution, C5 symmetry; 0.1 mg/mL in 25 mM Tris, 150 mM NaCl, pH 7.5, with 10 mM NDSB-195

Sequence of YenA2 (B6A878 whole entry): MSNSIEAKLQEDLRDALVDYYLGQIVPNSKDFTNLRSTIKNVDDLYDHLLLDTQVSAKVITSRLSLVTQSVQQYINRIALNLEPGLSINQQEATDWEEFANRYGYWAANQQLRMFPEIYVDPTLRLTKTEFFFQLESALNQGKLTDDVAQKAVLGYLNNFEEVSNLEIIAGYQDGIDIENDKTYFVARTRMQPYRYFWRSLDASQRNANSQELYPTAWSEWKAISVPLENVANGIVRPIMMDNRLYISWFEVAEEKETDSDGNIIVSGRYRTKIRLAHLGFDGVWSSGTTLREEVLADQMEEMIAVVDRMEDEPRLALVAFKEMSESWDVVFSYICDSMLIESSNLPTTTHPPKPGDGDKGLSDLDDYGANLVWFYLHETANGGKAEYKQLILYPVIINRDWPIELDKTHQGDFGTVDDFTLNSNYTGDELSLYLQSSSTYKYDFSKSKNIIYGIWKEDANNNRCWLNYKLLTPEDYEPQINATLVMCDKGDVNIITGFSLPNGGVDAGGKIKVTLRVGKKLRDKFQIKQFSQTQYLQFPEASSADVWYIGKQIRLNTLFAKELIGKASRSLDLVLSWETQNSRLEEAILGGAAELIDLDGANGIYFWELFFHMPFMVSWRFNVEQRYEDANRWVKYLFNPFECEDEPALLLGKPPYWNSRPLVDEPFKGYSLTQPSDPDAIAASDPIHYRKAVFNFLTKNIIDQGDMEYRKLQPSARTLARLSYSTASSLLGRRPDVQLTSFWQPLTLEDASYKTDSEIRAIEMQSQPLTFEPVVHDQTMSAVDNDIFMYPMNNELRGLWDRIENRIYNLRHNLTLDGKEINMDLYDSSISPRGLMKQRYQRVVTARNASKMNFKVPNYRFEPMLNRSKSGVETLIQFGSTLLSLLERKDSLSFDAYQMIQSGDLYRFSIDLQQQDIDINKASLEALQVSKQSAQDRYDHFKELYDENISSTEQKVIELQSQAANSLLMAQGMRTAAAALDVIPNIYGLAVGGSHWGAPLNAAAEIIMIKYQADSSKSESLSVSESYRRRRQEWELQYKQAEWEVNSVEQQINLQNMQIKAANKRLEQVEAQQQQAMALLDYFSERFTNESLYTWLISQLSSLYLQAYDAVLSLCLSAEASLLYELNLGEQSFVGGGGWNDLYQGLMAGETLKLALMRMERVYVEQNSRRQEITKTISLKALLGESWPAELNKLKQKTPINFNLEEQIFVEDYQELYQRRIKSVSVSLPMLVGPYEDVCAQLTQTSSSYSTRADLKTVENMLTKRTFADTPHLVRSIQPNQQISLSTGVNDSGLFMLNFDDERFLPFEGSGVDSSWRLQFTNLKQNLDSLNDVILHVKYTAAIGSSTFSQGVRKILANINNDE

Work on “YenA2 (from UniProt B6A878 1-1364) (natural protein)” yielded a stoichiometry N [1] of 5 and a stoichiometry N [2] of 5.
